From publication PMC3753634

T1: LtrC (phage phi55 ORF34) (Staphylococcus aureus phage phi55, UniProt Q4ZB49 1-133)
T1 sequence: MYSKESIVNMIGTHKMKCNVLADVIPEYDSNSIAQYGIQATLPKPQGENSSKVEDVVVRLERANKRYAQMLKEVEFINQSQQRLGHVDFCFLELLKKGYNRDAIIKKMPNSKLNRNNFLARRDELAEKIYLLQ

T2: ArpU (phage phiFL2A late transcriptional regulator) (Enterococcus faecalis phage phiFL2A, UniProt D2IZF3 1-155)
T2 sequence: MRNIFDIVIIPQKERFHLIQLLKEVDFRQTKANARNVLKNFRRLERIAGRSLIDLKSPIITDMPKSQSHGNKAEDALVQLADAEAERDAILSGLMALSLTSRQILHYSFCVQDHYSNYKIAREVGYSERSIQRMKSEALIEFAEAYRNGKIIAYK

B1: LtrC wt probe (phi55 repeat region, ORF34wt) (dsDNA)
DNA 1: TTGGCAGAAAAGATTTATCTACTACAGTGACGAAAATGACAAAATGACAGAAATGACGAAAATGACACTATTTTTAAACTGTGAATTAATTTTATATA
DNA 2: TATATAAAATTAATTCACAGTTTAAAAATAGTGTCATTTTCGTCATTTCTGTCATTTTGTCATTTTCGTCACTGTAGTAGATAAATCTTTTCTGCCAA
B2: ArpU wt probe (phiFL2A repeat region) (dsDNA)
DNA 1: TAATTTTGGCGGTTTTTGGCGGAAAGTTGGCGGTTTTATACGAATTTGAGTGCTAATATAGTAATATCGAAAG
DNA 2: CTTTCGATATTACTATATTAGCACTCAAATTCGTATAAAAACCGCCAACTTTCCGCCAAAAAACCGCAAAATTA

Experiments:
LtrC (phage phi55 ORF34) = target: T1, LtrC (phage phi55 ORF34); test: EMSA
[1] = target: T2, ArpU (phage phiFL2A late …); test: EMSA

Row | Binder | binding result (LtrC (phage phi55 ORF34)) | binding result [1]
1 | B1 | binds | 
2 | B2 |  | binds
